Assay results published in PMC3406030, “Structure of an MmyB-Like Regulator from C. aurantiacus, Member of a New Transcription Factor Family Linked to Antibiotic Metabolism in Actinomycetes” (PLoS ONE, 2012).

Legend:
[1] = molecular target: MmyB-like transcription regulator MltR (Caur_2278) from Chloroflexus aurantiacus (Chloroflexus aurantiacus J-10-fl) (UniProt A9WGF5); experiment: crystal structure; SeMet MltR, tag removed, 11.1 mg/ml; 0.2M NaCl, 10.5% polyethylene glycol 8000, 0.1M CHES pH 9.1, 277 K; space group C2, three monomers (1.5 dimers) in the asymmetric unit; bound myristic acid
MltR (Caur_2278) = molecular target: T1, MltR (Caur_2278) (Chloroflexus aurantiacus, UniProt A9WGF5); experiment: X-ray crystallography (SAD, […] Å); format: binding; conditions: co-purified ligand, none added; identity tentative, modelled from electron density (related fatty acid, mixture or PEG fragment not excluded); PAS-like C-terminal domain; pH 9.1, 277 K
T1 construct: full length, 291 residues, SeMet derivative; N-terminal His tag cut by TEV leaving Gly0; expressed in E. coli; dimer in crystal, monomer by size exclusion
T1 sequence (A9WGF5 1-291): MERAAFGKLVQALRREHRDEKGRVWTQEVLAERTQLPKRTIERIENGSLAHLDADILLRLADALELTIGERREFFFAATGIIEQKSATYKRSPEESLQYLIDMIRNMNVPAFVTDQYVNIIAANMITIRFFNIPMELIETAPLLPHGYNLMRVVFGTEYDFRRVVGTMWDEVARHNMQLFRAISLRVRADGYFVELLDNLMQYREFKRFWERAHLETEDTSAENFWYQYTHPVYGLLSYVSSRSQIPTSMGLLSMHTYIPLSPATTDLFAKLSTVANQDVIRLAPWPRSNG

stoichiometry N [1]	Compound	X-ray crystallography (SAD, 2.3 Å) (MltR (Caur_2278))
2	MmyB-like transcription regulator MltR (Caur_2278) from Chloroflexus aurantiacus (from UniProt A9WGF5 1-291) (natural protein)	–
–	CCCCCCCCCCCCCC(=O)O [MYR, myristic acid]	additional electron density in the putative ligand-binding site clearly indicated the presence of a fatty acid-type ligand
